# According to publication PMC7784771:
# How the values were obtained:
# TDP-43 RRM1-RRM2 = TDP-43 RRM1-RRM2 (human, UniProt Q13148 101-265); assay: fluorescence polarization
# TDP-43 RRM1 = TDP-43 RRM1 (human, UniProt Q13148 101-191); assay: fluorescence polarization
# Chain of TDP-43 RRM1 (Q13148 101-191): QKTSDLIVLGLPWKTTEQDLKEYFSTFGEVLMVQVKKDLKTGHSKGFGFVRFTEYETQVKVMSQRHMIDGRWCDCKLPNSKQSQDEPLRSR
# Chain of TDP-43 RRM1-RRM2 (Q13148 101-265): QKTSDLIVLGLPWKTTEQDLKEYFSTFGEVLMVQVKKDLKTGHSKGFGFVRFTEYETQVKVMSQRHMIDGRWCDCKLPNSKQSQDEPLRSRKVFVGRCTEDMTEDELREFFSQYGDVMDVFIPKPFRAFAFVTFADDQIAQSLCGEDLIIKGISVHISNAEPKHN
binder,measurement,setting,value
UGUGUGUGUGUG (ssRNA) [(UG)6 RNA],Kd,TDP-43 RRM1-RRM2,9.5 ± 1.3 nM
same,Kd,TDP-43 RRM1,56.9 ± 2.1 nM
